Test results taken from the Human Domainome abundance scans (Beltran et al. 2025).
± gives the uncertainty stated by the source.

B1: Receptor-interacting serine/threonine-protein kinase 2, residues 438 to 518; numbered along this chain, O43353 (parent)
chain: QWIQSKREDIVNQMTEACLNQSLDALLSRDLIMKEDYELVSTKPTRTSKVRQLLDTTDIQGEEFAKVIVQKLKDNKQMGLQ

Variants of: B1
Test: abundance fitness (aPCA) (normalised: wild type 0, dead -1); higher = more abundant; growth selection in yeast, the domain comes from the species named
Settings: Homo sapiens

Abundance fitness, by site and new letter:
T57: L -0.002 ± 0.049 | S 0.128 ± 0.062 | N -0.684 ± 0.37 | Y -0.658 ± 0.17 | Q 0.01 ± 0.089 | A 0.045 ± 0.051 | H -0.268 ± 0.091 | V 0.046 ± 0.055 | I 0.044 ± 0.25 | E -0.082 ± 0.14 | D -0.28 ± 0.078 | M 0.108 ± 0.1 | W -0.738 ± 0.14 | P -0.04 ± 0.05 | G -0.004 ± 0.041 | C 0.125 ± 0.11 | F -0.392 ± 0.12
E62: V -0.853 ± 0.092 | Y -0.913 ± 0.25 | S -0.627 ± 0.055 | I -0.912 ± 0.31 | G -0.537 ± 0.069 | F -0.741 ± 0.25 | A -0.555 ± 0.067 | L -0.808 ± 0.094 | D -0.648 ± 0.23 | T -0.629 ± 0.081 | P -0.493 ± 0.049 | W -1.32 ± 0.3 | H -0.678 ± 0.13 | M -0.545 ± 0.1 | Q -0.943 ± 0.15 | K -0.798 ± 0.16
F64: K -0.566 ± 0.19 | Y -0.448 ± 0.17 | R -0.475 ± 0.042 | M -0.047 ± 0.11 | L -0.295 ± 0.054 | P -0.248 ± 0.065 | T -0.142 ± 0.079 | Q -0.156 ± 0.12 | D -0.17 ± 0.18 | C 0.112 ± 0.13 | I -0.269 ± 0.23 | E -0.123 ± 0.11 | S -0.212 ± 0.053 | W -0.384 ± 0.082 | V -0.236 ± 0.058 | A 0.131 ± 0.058 | G -0.257 ± 0.054
Q60: H -0.199 ± 0.089 | Y -0.008 ± 0.11 | T -0.412 ± 0.08 | G -0.014 ± 0.054 | I -0.302 ± 0.15 | E -0.021 ± 0.17 | W -0.745 ± 0.12 | M -0.188 ± 0.1 | K -0.361 ± 0.14 | F -0.378 ± 0.16 | L -0.321 ± 0.055 | C -0.054 ± 0.065 | A -0.08 ± 0.053 | P -0.283 ± 0.06 | R -0.057 ± 0.047 | N -0.353 ± 0.1 | V -0.267 ± 0.056
G61: A -0.378 ± 0.1 | L -0.531 ± 0.089 | I -0.935 ± 0.32 | K 0.024 ± 0.19 | V -0.253 ± 0.09 | F -0.604 ± 0.29 | E -0.125 ± 0.15 | P -0.596 ± 0.086 | N -0.055 ± 0.16 | R -0.155 ± 0.054 | Q -0.243 ± 0.094 | T -0.085 ± 0.13 | C -0.083 ± 0.078 | Y -0.279 ± 0.14 | M -0.947 ± 0.45 | D -0.022 ± 0.14
T56: P -0.612 ± 0.075 | W 0.125 ± 0.11 | L 0.175 ± 0.061 | V 0.108 ± 0.056 | E -0.332 ± 0.16 | Y 0.046 ± 0.083 | H -0.206 ± 0.16 | I 0.19 ± 0.15 | Q -0.024 ± 0.083 | R -0.533 ± 0.067 | N -0.572 ± 0.22 | F 0.037 ± 0.12 | D -0.849 ± 0.24 | S -0.273 ± 0.058 | C -0.105 ± 0.13 | G -0.458 ± 0.061 | A -0.161 ± 0.06
I59: Y -0.342 ± 0.29 | G 0.143 ± 0.29 | K 0.17 ± 0.26 | L 0.231 ± 0.23 | V -0.171 ± 0.2 | S -0.29 ± 0.27 | C -0.029 ± 0.26
A65: S -0.457 ± 0.062 | R -0.649 ± 0.077 | K -0.708 ± 0.17 | T -0.85 ± 0.12 | H -0.44 ± 0.081 | C -0.624 ± 0.12 | V -0.933 ± 0.1 | G -0.6 ± 0.058 | E -0.456 ± 0.15 | L -0.949 ± 0.097 | F -1.12 ± 0.23 | Q -0.743 ± 0.16 | D -0.569 ± 0.13 | P -0.554 ± 0.062 | N -0.389 ± 0.18
E63: Y -0.839 ± 0.26 | G -0.475 ± 0.08 | H -0.734 ± 0.18 | P -0.432 ± 0.068 | F -0.972 ± 0.18 | L -0.684 ± 0.087 | T -0.362 ± 0.083 | R -0.413 ± 0.062 | Q -0.485 ± 0.28 | V -0.592 ± 0.084 | I -0.538 ± 0.14 | K -0.441 ± 0.18 | C -0.527 ± 0.12 | N -0.646 ± 0.19 | D -0.3 ± 0.22
D55: K -0.469 ± 0.23 | V -0.27 ± 0.065 | I -0.168 ± 0.11 | Y -0.445 ± 0.071 | L -0.132 ± 0.055 | H -0.665 ± 0.16 | M -0.03 ± 0.14 | T -0.313 ± 0.071 | S -0.153 ± 0.055 | W -0.475 ± 0.064 | P -0.676 ± 0.079 | N -0.347 ± 0.16 | R -0.162 ± 0.046 | Q -0.277 ± 0.13
D58: W -0.081 ± 0.08 | R -0.154 ± 0.058 | Y -0.259 ± 0.17 | L -0.047 ± 0.071 | I -0.007 ± 0.13 | M -0.033 ± 0.09 | V 0.041 ± 0.069 | H 0.026 ± 0.11 | Q 0.041 ± 0.087 | P 0.172 ± 0.064 | A 0.021 ± 0.053 | N -0.141 ± 0.42 | C 0.035 ± 0.096 | T -0.015 ± 0.07 | E 0.107 ± 0.1 | F 0.001 ± 0.17
